Laboratory results taken from article doi:10.1101/824060 (bioRxiv, 2019).

T1: Gid9 (S. cerevisiae, UniProt P40492 1-516)
T1 sequence: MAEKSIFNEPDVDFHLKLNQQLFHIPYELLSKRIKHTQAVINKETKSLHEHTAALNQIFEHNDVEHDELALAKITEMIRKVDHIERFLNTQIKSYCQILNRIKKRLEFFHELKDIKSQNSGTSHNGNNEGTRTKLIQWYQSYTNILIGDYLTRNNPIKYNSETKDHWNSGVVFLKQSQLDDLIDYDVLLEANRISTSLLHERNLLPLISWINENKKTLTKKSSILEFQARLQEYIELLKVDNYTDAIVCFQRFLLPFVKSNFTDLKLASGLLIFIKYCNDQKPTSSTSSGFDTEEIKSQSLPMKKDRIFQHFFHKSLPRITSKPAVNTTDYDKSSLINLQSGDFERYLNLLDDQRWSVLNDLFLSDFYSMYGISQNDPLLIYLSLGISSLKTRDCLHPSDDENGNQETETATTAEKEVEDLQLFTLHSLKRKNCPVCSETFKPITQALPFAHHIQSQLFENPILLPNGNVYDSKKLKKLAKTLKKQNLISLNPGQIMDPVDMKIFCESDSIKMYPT

T2: Gid1 (endogenous, in native GID^Ant) (S. cerevisiae (endogenous in strain …, UniProt P53076 1-958))
T2 sequence: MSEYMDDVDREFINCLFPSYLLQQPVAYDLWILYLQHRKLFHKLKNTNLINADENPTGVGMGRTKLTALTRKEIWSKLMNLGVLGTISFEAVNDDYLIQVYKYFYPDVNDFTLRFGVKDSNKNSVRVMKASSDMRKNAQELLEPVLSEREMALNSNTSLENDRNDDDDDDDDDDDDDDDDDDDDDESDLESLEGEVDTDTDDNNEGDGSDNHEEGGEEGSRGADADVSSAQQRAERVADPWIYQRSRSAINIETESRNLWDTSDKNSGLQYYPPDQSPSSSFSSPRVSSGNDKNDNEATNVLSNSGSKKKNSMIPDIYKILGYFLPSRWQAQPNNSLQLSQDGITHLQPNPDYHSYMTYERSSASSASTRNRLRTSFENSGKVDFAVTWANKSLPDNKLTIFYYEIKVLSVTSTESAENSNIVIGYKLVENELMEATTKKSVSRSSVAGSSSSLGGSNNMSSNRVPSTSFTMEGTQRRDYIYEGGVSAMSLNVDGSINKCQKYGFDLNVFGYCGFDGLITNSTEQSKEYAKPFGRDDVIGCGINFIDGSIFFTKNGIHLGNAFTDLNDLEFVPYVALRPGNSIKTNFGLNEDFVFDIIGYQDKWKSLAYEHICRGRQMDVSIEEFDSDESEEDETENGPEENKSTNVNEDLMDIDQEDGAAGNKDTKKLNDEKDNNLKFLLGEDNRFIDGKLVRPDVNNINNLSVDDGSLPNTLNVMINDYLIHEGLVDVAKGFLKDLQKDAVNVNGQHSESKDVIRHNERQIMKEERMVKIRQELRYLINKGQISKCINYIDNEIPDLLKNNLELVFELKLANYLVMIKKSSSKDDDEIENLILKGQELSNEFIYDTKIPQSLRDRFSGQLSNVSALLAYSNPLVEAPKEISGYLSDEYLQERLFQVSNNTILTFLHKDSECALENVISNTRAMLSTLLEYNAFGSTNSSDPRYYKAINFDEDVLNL

T3: Gid9 (endogenous, in native GID^Ant) (S. cerevisiae (endogenous in strain …, UniProt P40492 1-516))
T3 sequence: T1 sequence

T4: Gid1 (S. cerevisiae, UniProt P53076 1-958)
T4 sequence: T2 sequence

B1: Gid2 (natural protein)
chain: MSELLDSFETEFAKFYTDSNLEETNLQKCLDHTHEFKSQLKKLKAHLNKHIQESKPEVYNKLSDKEKQKFKRKRELIIEKLSKSQRQWDHSVKKQIKYVSQQSNRFNKSTLNKLKEFDIDSVYVNKLPKETMENVNEAIGYHILRYSIDNMPLGNKNEAFQYLKDVYGITNKESTEFIEMGQIVHDLKKGDTESCLKWCSNEMESLSSNHTALSSLKFDLYTLSAMQIVKHGNPVELYYQITQNAPLDCFRHREKELMQNVVPLLTKSLIGQPIEDIDSKVNKELKECTSLFIKEYCAAKHIFFDSPLFLIVLSGLISFQFFIKYKTIRELAHVDWTTKDELPFDVKLPDFLTHFHPIFICPVLKEETTTENPPYSLACHHIISKKALDRLSKNGTITFKCPYCPVNTSMSSTKKVRFVML
B2: Gid8 with 3X Flag tag at the C-terminus (endogenous, strain CRLY45) (natural protein)
chain: MTISTLSNETTKSGSCSGQGKNGGKDFTYGKKCFTKEEWKEQVAKYSAMGELYANKTIHYPLKIQPNSSGGSQDEGFATIQTTPIEPTLPRLLLNYFVSMAYEDSSIRMAKELGFIRNNKDIAVFNDLYKIKERFHIKHLIKLGRINEAMEEINSIFGLEVLEETFNATGSYTGRTDRQQQQQQQQFDIDGDLHFKLLLLNLIEMIRSHHQQENITKDSNDFILNLIQYSQNKLAIKASSSVKKMQELELAMTLLLFPLSDSADSGSIKLPKSLQNLYSISLRSKIADLVNEKLLKFIHPRIQFEISNNNSKFPDLLNSDKKIITQNFTVYNNNLVNGSNGTKITHISSDQPINEKMSSNEVTAAANSVWLNQRDGNVGTGSAATTFHNLENKNYWNQTSELLSSSNGKEKGLEFNNYYSSEFPYEPRLTQIMKLWCWCENQLHHNQIGVPRVEN
B3: Gid8 (natural protein)
chain: B2 chain

Experiments:
Gid9 = target: T1, Gid9; assay: […]
[1] = target: T2, Gid1 (endogenous, in native GID^Ant); assay: cryo-EM structure
[2] = target: T3, Gid9 (endogenous, in native GID^Ant); assay: cryo-EM structure
Gid1 = target: T4, Gid1; assay: […]

Row | Binder | binding result (Gid9) | binding result [1] | binding result [2] | binding result (Gid1)
1 | B1 | binds | – | – | –
2 | B2 | – | binds | binds | –
3 | B3 | binds | – | – | binds
